Test results reported in publication PMC4751278 (2016).

Molecular target: T1, Hik2-GST (full-length Histidine kinase 2 of Synechocystis sp. PCC 6803, GST-tagged) (Synechocystis sp. (strain ATCC 27184 / …, UniProt P73276))
T1 chain: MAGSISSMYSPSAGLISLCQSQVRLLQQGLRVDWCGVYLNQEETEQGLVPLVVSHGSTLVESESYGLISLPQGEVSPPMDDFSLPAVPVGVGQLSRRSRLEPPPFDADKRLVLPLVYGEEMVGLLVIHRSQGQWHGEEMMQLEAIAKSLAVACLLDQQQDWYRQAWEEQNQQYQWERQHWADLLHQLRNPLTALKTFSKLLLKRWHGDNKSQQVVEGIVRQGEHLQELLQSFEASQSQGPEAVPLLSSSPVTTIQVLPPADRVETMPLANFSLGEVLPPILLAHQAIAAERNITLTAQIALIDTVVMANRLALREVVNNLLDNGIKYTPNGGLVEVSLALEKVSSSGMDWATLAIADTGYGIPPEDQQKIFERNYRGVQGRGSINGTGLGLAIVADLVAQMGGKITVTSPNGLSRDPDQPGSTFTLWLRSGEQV
Experiment: GST pull-down

B1: Rre1_Rec-His6 (receiver domain of Response regulator 1) (protein)
chain: MAEPISLLLVDDEPGVRESVQAFLEDSGDFKVDLAANATEAWDYLQHHLPALVISDIMMPQVDGYQFLQKLREDARFQSLPVVFLTARGMTGDRIQGYQTGCDAFLSKPFDPDELEAIVRNLL
B1: binds.
